Biological target: YY1 full-length recombinant (Active Motif 31332) (UniProt P25490 1-414)
Assay: EMSA; 100-750 ng YY1, 10 mM Mg2+; EMSA: 10 mM Tris pH 7.5, 50 mM KCl, 1 mM DTT, 10 mM MgCl2, 4 C, 30 min (poly d(I-C) with nuclear extract)
Details: protein: commercial; label: 5' biotin (both strands); blunt

Chain of YY1 full-length recombinant (Active Motif 31332) (P25490 whole entry): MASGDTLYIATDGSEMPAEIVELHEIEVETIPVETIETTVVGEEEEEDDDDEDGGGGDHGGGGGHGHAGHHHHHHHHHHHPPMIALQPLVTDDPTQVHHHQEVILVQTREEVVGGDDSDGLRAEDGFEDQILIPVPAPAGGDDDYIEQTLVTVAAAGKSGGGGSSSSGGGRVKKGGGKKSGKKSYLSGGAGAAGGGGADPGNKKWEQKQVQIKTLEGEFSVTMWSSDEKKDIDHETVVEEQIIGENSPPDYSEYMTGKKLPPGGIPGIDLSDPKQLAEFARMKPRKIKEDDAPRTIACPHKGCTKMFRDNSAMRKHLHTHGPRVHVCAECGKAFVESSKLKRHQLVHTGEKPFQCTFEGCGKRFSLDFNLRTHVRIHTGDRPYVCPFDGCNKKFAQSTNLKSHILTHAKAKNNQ

B1: rs398206 A allele EMSA probe (dsDNA)
DNA 1: GTCCGTCCCAACATGGCGGGT
DNA 2: ACCCGCCATGTTGGGACGGAC
  binding result: binds

From paper doi:10.1101/625400, “Massively parallel reporter assays combined with cell-type specific eQTL informed multiple melanoma loci and identified a pleiotropic function of HIV-1 restriction gene, MX2, in melanoma promotion”
